Assay results published in patent publication US20230416394A1.

Tests used:
[1] = target: human CD39 (human) (UniProt P49961); experiment: cell-based or functional assay
[2] = target: human TGFβ1 (human) (UniProt P01137); experiment: Octet, ES014-1 on sensor, TGFβ gradient
[3] = target: human TGFβ1 (human) (UniProt P01137); experiment: ELISA, coated human TGFβ1
[4] = target: human CD39 protein (Octet assays) (human); experiment: Octet, ES014-1 on sensor, CD39 protein gradient
[5] = target: human TGFβ1 (human) (UniProt P01137); experiment: ELISA, blocking of TGFβRII-His binding to coated TGFβ1

human TGFβ1 (human), sequence (P01137 279-390 limits assumed): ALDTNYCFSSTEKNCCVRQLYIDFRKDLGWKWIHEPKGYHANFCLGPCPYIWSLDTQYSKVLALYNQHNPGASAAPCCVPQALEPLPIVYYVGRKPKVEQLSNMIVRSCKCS
human CD39 (human), sequence (P49961 whole entry): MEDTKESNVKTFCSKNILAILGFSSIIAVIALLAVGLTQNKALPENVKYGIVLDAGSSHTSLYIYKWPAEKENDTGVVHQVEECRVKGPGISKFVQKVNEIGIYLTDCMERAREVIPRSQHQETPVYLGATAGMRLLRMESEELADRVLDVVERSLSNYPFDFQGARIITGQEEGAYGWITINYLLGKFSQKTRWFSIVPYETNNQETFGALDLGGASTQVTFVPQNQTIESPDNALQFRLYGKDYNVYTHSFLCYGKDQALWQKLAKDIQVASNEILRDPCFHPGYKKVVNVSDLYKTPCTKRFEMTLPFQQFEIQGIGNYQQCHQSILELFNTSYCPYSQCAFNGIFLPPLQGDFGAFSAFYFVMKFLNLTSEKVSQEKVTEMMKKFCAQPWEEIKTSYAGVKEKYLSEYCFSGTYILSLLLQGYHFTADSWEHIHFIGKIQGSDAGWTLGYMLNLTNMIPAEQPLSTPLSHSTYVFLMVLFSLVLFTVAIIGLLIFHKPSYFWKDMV

IC50 to CD39 ATPase activity on MOLP-8 cells (CellTiterGlo) [1]: 1.21 nM
Kd [2]: 0.037 nM
koff [2]: 0.000234 s⁻¹
kon [2]: 6.32e+06 M⁻¹ s⁻¹
EC50 [3]: 0.26 nM
Kd [4]: 0.376 nM
koff [4]: 3.44e-05 s⁻¹
kon [4]: 91400 M⁻¹ s⁻¹
IC50 [5]: 3.73 nM
Substance: ES014-1 (bispecific antibody)
